Key:
PD-L1-his [1] = molecular target: T1, PD-L1-his (human, UniProt Q9NZQ7 19-238, limits assumed); experiment: SPR (Biacore 8K), PD-L1-his immobilised on CM5 chip, binder as analyte
T1 construct: also called 인간 PD-L1; not shown: his tag

PD-L1 on cells [2] = molecular target: T2, PD-L1 on cells (human, UniProt Q9NZQ7 19-290); experiment: flow cytometry, apparent affinity on PD-L1 + Karpas-299 cells
T2 construct: whole, on cells; the tumour lines are human lines; The cell line of each result is named under assay or readout; also called PD-L1 + Karpas-299 세포; PD-L1 + HCC827

CD3 on T cells = molecular target: T3, CD3 on T cells (UniProt P07766 23-207); experiment: flow cytometry, apparent affinity on CD3 + Jurkat T cells
T3 construct: whole, on cells; also called CD3 + Jurkat T 세포; Jurkat T 세포의 CD3

PD-L1 on cells [3] = molecular target: T2, PD-L1 on cells; experiment: cell-based or functional assay
PD-L1-his [4] = molecular target: T1, PD-L1-his; experiment: SPR (Biacore 8K); ratio of KD against YBL-007 on PD-L1
PD-L1-his [5] = molecular target: T1, PD-L1-his; experiment: SPR (Biacore 8K), PD-L1-his immobilised on CM5 chip, binder as analyte; monovalent stem Fv

T1 sequence (Q9NZQ7 19-238 limits assumed): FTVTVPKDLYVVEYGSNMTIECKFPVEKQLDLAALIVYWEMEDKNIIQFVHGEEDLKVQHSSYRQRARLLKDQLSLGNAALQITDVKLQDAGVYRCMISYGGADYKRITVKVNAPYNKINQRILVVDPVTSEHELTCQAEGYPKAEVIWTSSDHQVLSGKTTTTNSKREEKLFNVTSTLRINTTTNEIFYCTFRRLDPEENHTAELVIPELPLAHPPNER
T2 sequence (Q9NZQ7 19-290): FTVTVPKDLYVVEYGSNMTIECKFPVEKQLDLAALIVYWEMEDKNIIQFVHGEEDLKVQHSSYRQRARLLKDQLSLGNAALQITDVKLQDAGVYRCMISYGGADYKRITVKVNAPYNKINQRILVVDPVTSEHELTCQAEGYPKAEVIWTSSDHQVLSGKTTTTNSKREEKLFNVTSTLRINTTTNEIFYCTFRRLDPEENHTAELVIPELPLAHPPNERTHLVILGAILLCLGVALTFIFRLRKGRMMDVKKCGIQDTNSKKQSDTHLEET
T3 sequence (P07766 23-207): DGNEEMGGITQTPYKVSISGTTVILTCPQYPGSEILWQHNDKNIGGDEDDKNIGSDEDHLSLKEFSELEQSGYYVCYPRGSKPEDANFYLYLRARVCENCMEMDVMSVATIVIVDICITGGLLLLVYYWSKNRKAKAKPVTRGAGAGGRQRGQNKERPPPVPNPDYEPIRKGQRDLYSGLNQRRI

| Binder | Kd (PD-L1-his [1]) | Kd (PD-L1 on cells [2]) | Kd (CD3 on T cells) | T 세포 활성화 효율 (EC50); PD-1/PD-L1 blockade bioassay, NFAT-luciferase, PD-L1/aAPC CHO-K1 + PD-1 Jurkat (PD-L1 on cells [3]) | T 세포 활성화 효율, fold against BiTE-05; PD-1/PD-L1 blockade bioassay (PD-L1 on cells [3]) | 표적 사멸 활성 (EC50), LDH release, PD-L1 + HCC827 cells with effector cells (PBMC) (PD-L1 on cells [3]) | 표적 사멸 활성 (EC50), LDH release, PD-L1 + MDA-MB-231 cells with effector cells (CD3 + T cells) (PD-L1 on cells [3]) | fold lower binding affinity than the parent antibody YBL-007 (PD-L1-his [4]) | Kd (PD-L1-his [5]) |
| --- | --- | --- | --- | --- | --- | --- | --- | --- | --- |
| YBL-007 (항-PD-L1 모 항체) (antibody, V domains shown, Parent IgG; also called anti-PD-L1 parent antibody (Y-Biologics Inc.)) VH: QMQLVQSGAEVKKPGSSVKVSCKASGGTFSSYAISWVRQAPGQGLEWMGRIIPILGIANYAQKFQGRVTITADKSTSTAYMELSSLRSEDTAVYYCAKPRDGYNLVAFDIWGQGTMVTVSS VL: QLVLTQPPSVSGAPGQRVTISCTGSSSNIGAGYDVHWYQQLPGAAPKLLIYGDINRPSGVPDRFSGSKSGISASLAITGLQAEDEADYYCQSYDSSLSGGVFGGGTKLTVLR | 646 pM | – | – | – | – | – | – | – | – |
| ACE-05 (항-PD-L1 Fab × 항-CD3 Fv) (bispecific antibody, also called ALiCE; ACE-05-VH / ACE-05-VL / ACE-05-LC) heavy 1: not shown heavy 2: not shown light: QLVLTQPPSVSGAPGQRVTISCTGSSSNIGAGYDVHWYQQLPGAAPKLLIYGDINRPSGVPDRFSGSKSGISASLAITGLQAEDEADYYCQSYDSSLSGGVFGGGTKLTVLRSVAAPSVFIFPPSDEQLKSGTASVVCLLNNFYPREAKVQWKVDNALQSGNSQESVTEQDSKDSTYSLSSTLTLSKADYEKHKVYACEVTHQGLSSPVTKSFNRGEC | 678 pM | 31.4 pM | 52400 pM | 210 pM | 5 fold | 1.97 pM | 8.37 pM | – | – |
| ACE-31 (항-CD3 Fab × 항-PD-L1 Fv) (bispecific antibody, also called ACE-31-VH / ACE-31-VL / ACE-31-LC) heavy 1: EVQLQQSGPELVKPGPSMKISCKASGYSFTGYTMNWVKQSHGKNLEWMGLINPYKGVSTYNQKFKDKATLTVDKSSSTAYMELLSLTSEDSAVYYCARSGYYGDSDWYFDVWGQGTTLTVFSASTKGPSVFPLAPSSKSTSGGTAALGCLVKDYFPEPVTVSWNSGALTSGVHTFPAVLQSSGLYSLSSVVTVPSSSLGTQTYICNVNHKPSNTKVDKKVEPKSCDKTHTCPPCPPCPAPELLGGPGGGGSGGGGSQMQLVQSGAEVKKPGSSVKVSCKASGGTFSSYAISWVRQAPGQGLEWMGRIIPILGIANYAQKFQGRVTITADKSTSTAYMELSSLRSEDTAVYYCAKPRDGYNLVAFDIWGQGTMVTVSS heavy 2: EVQLQQSGPELVKPGPSMKISCKASGYSFTGYTMNWVKQSHGKNLEWMGLINPYKGVSTYNQKFKDKATLTVDKSSSTAYMELLSLTSEDSAVYYCARSGYYGDSDWYFDVWGQGTTLTVFSASTKGPSVFPLAPSSKSTSGGTAALGCLVKDYFPEPVTVSWNSGALTSGVHTFPAVLQSSGLYSLSSVVTVPSSSLGTQTYICNVNHKPSNTKVDKKVEPKSCDKTHTCPPCPPCPAPELLGGPGGGGSQLVLTQPPSVSGAPGQRVTISCTGSSSNIGAGYDVHWYQQLPGAAPKLLIYGDINRPSGVPDRFSGSKSGISASLAITGLQAEDEADYYCQSYDSSLSGGVFGGGTKLTVLR light: DIQMTQTTSSLSASLGDRVTISCRASQDIRNYLNWYQQKPDGTVKLLIYYTSRLHSGVPSKFSGSGSGTDYSLTISNLEQEDIATYFCQQGNTLPWTFAGGTKLEIKRTVAAPSVFIFPPSDEQLKSGTASVVCLLNNFYPREAKVQWKVDNALQSGNSQESVTEQDSKDSTYSLSSTLTLSKADYEKHKVYACEVTHQGLSSPVTKSFNRGEC | – | 20600 pM | 856 pM | – | – | – | – | 40 fold | 27200 pM |

Reference: patent publication KR20210043475A (dated 2021)
